Where no end group is shown, it is not given here. [ ]: non-standard residue; d: D form. pT = C[C@@H](OP(=O)(O)O)[C@H](N)C(=O)O
B1: ILTELPPGV (SEQ ID NO: 33, ZNF407) (peptide)
peptide: ILTELPPGV
B2: FLSSEAANV (SEQ ID NO: 30, TNFAIP2) (peptide)
peptide: FLSSEAANV
B3: KAFPFYNTV (SEQ ID NO: 12, NAIP) (peptide)
peptide: KAFPFYNTV
B4: KLYEGIPVL (SEQ ID NO: 13, NEK10) (peptide)
peptide: KLYEGIPVL
B5: ALEEQLHQV (SEQ ID NO: 19, KRT25, KRT28, KRT27) (peptide)
peptide: ALEEQLHQV
B6: GLLPTSVSPRV (SEQ ID NO: 11, SCUBE2) (peptide)
peptide: GLLPTSVSPRV
B7: SLVEGEAVHLA (SEQ ID NO: 4, TFAP2E, TFAP2A, TFAP2B, TFAP2C) (peptide)
peptide: SLVEGEAVHLA
B8: TIASSIEKA (SEQ ID NO: 17, STPG2) (peptide)
peptide: TIASSIEKA
B9: ILFDVVVFL (SEQ ID NO: 25, C4orf3) (peptide)
peptide: ILFDVVVFL
B10: ALNPVIYTV (SEQ ID NO: 5, DRD4) (peptide)
peptide: ALNPVIYTV
B11: GLSYIYNTV (SEQ ID NO: 31, COG6) (peptide)
peptide: GLSYIYNTV
B12: TLLGLAVNV (SEQ ID NO: 36, CHPT1) (peptide)
peptide: TLLGLAVNV
B13: SLLSEIQAL (SEQ ID NO: 35, AKAP9, PCNT) (peptide)
peptide: SLLSEIQAL
B14: FIIPTVATA (SEQ ID NO: 7, ABCC11) (peptide)
peptide: FIIPTVATA
B15: KLLDMELEM (SEQ ID NO: 39, FAH) (peptide)
peptide: KLLDMELEM
B16: SMMGLLTNL (SEQ ID NO: 16, ESR1) (peptide)
peptide: SMMGLLTNL
B17: GLLGFQAEA (SEQ ID NO: 24, MAGED1) (peptide)
peptide: GLLGFQAEA
B18: SLFSVPFFL (SEQ ID NO: 28, TM9SF1) (peptide)
peptide: SLFSVPFFL
B19: FLVEHVLTL (SEQ ID NO: 42, SLC39A6) (peptide)
peptide: FLVEHVLTL
B20: GLVQSLTSI (SEQ ID NO: 8, ABCC11) (peptide)
peptide: GLVQSLTSI
B21: LLMUVAGLKL (SEQ ID NO: 38, PCNXL3) (peptide)
peptide: LLM[pT]VAGLKL
B22: SLAEPRVSV (SEQ ID NO: 27, FASN) (peptide)
peptide: SLAEPRVSV
B23: SLLTEPALV (SEQ ID NO: 21, TBC1D9) (peptide)
peptide: SLLTEPALV
B24: SLNDQGYLL (SEQ ID NO: 41, MCM8) (peptide)
peptide: SLNDQGYLL
B25: ALEAUQLYL (SEQ ID NO: 29, DEPDC4) (peptide)
peptide: ALEA[pT]QLYL
B26: GLVATLQSL (SEQ ID NO: 32, IFI6) (peptide)
peptide: GLVATLQSL
B27: GLHSLPPEV (SEQ ID NO: 10, LRRC8E) (peptide)
peptide: GLHSLPPEV
B28: SLFPSLVVV (SEQ ID NO: 15, PLEC) (peptide)
peptide: SLFPSLVVV
B29: YIDGLESRV (SEQ ID NO: 22, CREB3L4) (peptide)
peptide: YIDGLESRV
B30: SLADAVEKV (SEQ ID NO: 23, CCDC122) (peptide)
peptide: SLADAVEKV
B31: ALAGSSPQV (SEQ ID NO: 2, CNTD2) (peptide)
peptide: ALAGSSPQV
B32: FMSKLVPAI (SEQ ID NO: 9, TPRG1) (peptide)
peptide: FMSKLVPAI
B33: YILLQSPQL (SEQ ID NO: 18, MUC6) (peptide)
peptide: YILLQSPQL
B34: KQLELELEV (SEQ ID NO: 14, MUC6) (peptide)
peptide: KQLELELEV
B35: KMPEHISTV (SEQ ID NO: 1, CILP) (peptide)
peptide: KMPEHISTV
B36: SLAWDVPAA (SEQ ID NO: 26, FASN) (peptide)
peptide: SLAWDVPAA
B37: ALTALQNYL (SEQ ID NO: 6, TFAP2B) (peptide)
peptide: ALTALQNYL
B38: FLDEEVKLI (SEQ ID NO: 43, FTL) (peptide)
peptide: FLDEEVKLI
B39: FSFPVSVGV (SEQ ID NO: 20, DUSP4) (peptide)
peptide: FSFPVSVGV

target: T1, HLA-A*02:01 (human); experiment: UV-ligand exchange, anti-β2m ELISA; grade of peptide exchange yield (legend: ≥20% = ++)
T1 construct: MHC class I monomer in the UV-ligand exchange assay, captured on streptavidin plates; also called peptide-receptive MHC molecules
Text: (§1) Candidate peptides for T cell based therapies according to the present invention were further tested for their MHC binding capacity (affinity). The individual peptide-MHC complexes were produced by UV-ligand exchange, where a UV-sensitive peptide is cleaved upon UV-irradiation, and exchanged with the peptide of interest as analyzed. Only peptide candidates that can effectively bind and stabilize the peptide-receptive MHC molecules prevent dissociation of the MHC complexes. To determine the yield of the exchange reaction, an ELISA was performed based on the detection of the light chain (β2m) of stabilized MHC complexes. The assay was performed as generally described in Rodenko et al. (Rodenko et al., 2006).
(§2) 96 well MAXISorp plates (NUNC) were coated over night with 2 ug/ml streptavidin in PBS at room temperature, washed 4× and blocked for 1 h at 37° C. in 2% BSA containing blocking buffer. Refolded HLA-A*02:01/MLA-001 monomers served as standards, cov-ering the range of 15-500 ng/ml. Peptide-MHC monomers of the UV-exchange reaction were diluted 100-fold in blocking buffer. Samples were incubated for 1 h at 37° C., washed four times, incubated with 2 ug/ml HRP conjugated anti-β2m for 1 h at 37° C., washed again and detected with TMB solution that is stopped with NH2SO4. Absorp-tion was measured at 450 nm. Candidate peptides that show a high exchange yield (preferably higher than 50%, most preferred higher than 75%) are generally preferred for a generation and production of antibodies or fragments thereof, and/or T cell receptors or fragments thereof, as they show sufficient avidity to the MHC molecules and prevent dissociation of the MHC complexes.

Question: Which peptide exchange yield does the source give for B1 here?
Answer: The peptide exchange yield was 20 to 50%.

Question: With B2 as the binder, how does the peptide exchange yield read?
Answer: The peptide exchange yield was 20 to 50%.

Question: How did the peptide exchange yield turn out when B3 was run?
Answer: Its peptide exchange yield is 20 to 50%.

Question: For B4, which peptide exchange yield is on record?
Answer: The peptide exchange yield was 20 to 50%.

Question: B5 was tested. Which peptide exchange yield did it give?
Answer: Its peptide exchange yield is 20 to 50%.

Question: For B6, which peptide exchange yield is on record?
Answer: The peptide exchange yield was 20 to 50%.

Question: Which peptide exchange yield does the source give for B7 here?
Answer: Its peptide exchange yield is 20 to 50%.

Question: B8 was tested. Which peptide exchange yield did it give?
Answer: Its peptide exchange yield is 20 to 50%.

Question: For B9, which peptide exchange yield is on record?
Answer: The peptide exchange yield was 20 to 50%.

Question: With B10 as the binder, how does the peptide exchange yield read?
Answer: Its peptide exchange yield is 20 to 50%.

Question: For B11, which peptide exchange yield is on record?
Answer: The peptide exchange yield was 20 to 50%.

target: T1, HLA-A*02:01; experiment: UV-ligand exchange, anti-β2m ELISA; grade of peptide exchange yield (legend: ≥75% = ++++)
Text: as §1, §2

Question: Which peptide exchange yield does the source give for B12 here?
Answer: The peptide exchange yield was ≥ 75%.

Question: B13 was tested. Which peptide exchange yield did it give?
Answer: Its peptide exchange yield is ≥ 75%.

Question: B14 was tested. Which peptide exchange yield did it give?
Answer: The peptide exchange yield was ≥ 75%.

Question: Which peptide exchange yield does the source give for B15 here?
Answer: The peptide exchange yield was ≥ 75%.

Question: Which peptide exchange yield does the source give for B16 here?
Answer: The peptide exchange yield was ≥ 75%.

Question: For B17, which peptide exchange yield is on record?
Answer: Its peptide exchange yield is ≥ 75%.

Question: With B18 as the binder, how does the peptide exchange yield read?
Answer: The peptide exchange yield was ≥ 75%.

Question: For B19, which peptide exchange yield is on record?
Answer: The peptide exchange yield was ≥ 75%.

Question: For B20, which peptide exchange yield is on record?
Answer: Its peptide exchange yield is ≥ 75%.

Question: With B21 as the binder, how does the peptide exchange yield read?
Answer: Its peptide exchange yield is ≥ 75%.

target: T1, HLA-A*02:01; experiment: UV-ligand exchange, anti-β2m ELISA; grade of peptide exchange yield (legend: ≥50 = +++)
Text: as §1, §2

Question: Which peptide exchange yield does the source give for B22 here?
Answer: The peptide exchange yield was 50 to 75%.

Question: For B23, which peptide exchange yield is on record?
Answer: The peptide exchange yield was 50 to 75%.

Question: Which peptide exchange yield does the source give for B24 here?
Answer: The peptide exchange yield was 50 to 75%.

Question: How did the peptide exchange yield turn out when B25 was run?
Answer: Its peptide exchange yield is 50 to 75%.

Question: Which peptide exchange yield does the source give for B26 here?
Answer: Its peptide exchange yield is 50 to 75%.

Question: Which peptide exchange yield does the source give for B27 here?
Answer: Its peptide exchange yield is 50 to 75%.

Question: B28 was tested. Which peptide exchange yield did it give?
Answer: Its peptide exchange yield is 50 to 75%.

Question: How did the peptide exchange yield turn out when B29 was run?
Answer: The peptide exchange yield was 50 to 75%.

Question: Which peptide exchange yield does the source give for B30 here?
Answer: Its peptide exchange yield is 50 to 75%.

Question: How did the peptide exchange yield turn out when B31 was run?
Answer: The peptide exchange yield was 50 to 75%.

Question: How did the peptide exchange yield turn out when B32 was run?
Answer: Its peptide exchange yield is 50 to 75%.

Question: How did the peptide exchange yield turn out when B33 was run?
Answer: Its peptide exchange yield is 50 to 75%.

Question: B34 was tested. Which peptide exchange yield did it give?
Answer: Its peptide exchange yield is 50 to 75%.

Question: Which peptide exchange yield does the source give for B35 here?
Answer: Its peptide exchange yield is 50 to 75%.

Question: For B36, which peptide exchange yield is on record?
Answer: The peptide exchange yield was 50 to 75%.

Question: For B37, which peptide exchange yield is on record?
Answer: The peptide exchange yield was 50 to 75%.

Question: Which peptide exchange yield does the source give for B38 here?
Answer: The peptide exchange yield was 50 to 75%.

Question: B39 was tested. Which peptide exchange yield did it give?
Answer: Its peptide exchange yield is 50 to 75%.

Reference: patent publication US20190060431A1 (IMMATICS BIOTECHNOLOGIES, published 2019)
